Series [1] concerns HIV-1 Tat;Cyclin T1 (CycT1, P-TEFb subunit);CDK9 (P-TEFb subunit);AFF4 2-73 WT (HIV-1;human;human;human). The series can be described thus: EMSA. To be noted: EMSA: 100 pM 32P-TAR, 0.009-190 nM Tat:P-TEFb, 5-fold molar excess AFF4 over P-TEFb; buffer and temperature as in Schulze-Gahmen 2014 (not given). SHAPE: RNA ….
Series [2] has as its system HIV-1 Tat;Cyclin T1 (CycT1, P-TEFb subunit);CDK9 (P-TEFb subunit) (HIV-1;human;human). The series can be described thus: EMSA. The conditions noted are these: EMSA: 100 pM 32P-TAR, 0.009-190 nM Tat:P-TEFb, 5-fold molar excess AFF4 over P-TEFb; buffer and temperature as in Schulze-Gahmen 2014 (not given). SHAPE: RNA …. On the technique in general: In EMSA bound probe runs differently from free probe, usually more slowly.

The test system of series [3] is HIV-1 Tat;Cyclin T1 (CycT1, P-TEFb subunit);CDK9 (P-TEFb subunit);AFF4 2-73 WT (HIV-1;human;human;human). Kind of series: EMSA. The conditions noted are these: EMSA: 100 pM 32P-TAR, 0.009-190 nM Tat:P-TEFb, 5-fold molar excess AFF4 over P-TEFb; buffer and temperature as in Schulze-Gahmen 2014 (not given). SHAPE: RNA …. The source holds these as a separate data set.
The test system of series [4] is HIV-1 Tat;Cyclin T1 (CycT1, P-TEFb subunit);CDK9 (P-TEFb subunit);AFF4 2-73 K63A (HIV-1;human;human;human). Kind of series: EMSA. The conditions noted are these: EMSA: 100 pM 32P-TAR, 0.009-190 nM Tat:P-TEFb, 5-fold molar excess AFF4 over P-TEFb; buffer and temperature as in Schulze-Gahmen 2014 (not given). SHAPE: RNA ….
The test system of series [5] is HIV-1 Tat;Cyclin T1 (CycT1, P-TEFb subunit);CDK9 (P-TEFb subunit);AFF4 2-73 E61A (HIV-1;human;human;human). Kind of series: EMSA. The conditions noted are these: EMSA: 100 pM 32P-TAR, 0.009-190 nM Tat:P-TEFb, 5-fold molar excess AFF4 over P-TEFb; buffer and temperature as in Schulze-Gahmen 2014 (not given). SHAPE: RNA ….
Series [6] addresses T1, human cyclin T1 1-264 (human, UniProt O60563 1-264).
T1 construct: human cyclin T1, residues 1-264; also called CycT1; CycT; source: High 5 insect cells, recombinant baculovirus, co-expressed with CDK9 and Tat, purified
The series can be described thus: crystal structure; Tat_(1-57):AFF4_(32-67):P-TEFb combined with TAR21 RNA (nucleotides 21-41) at 1:1.3; sitting drops at 18°C; 5.9 Å; molecular replacement with PDB 4OGR. To be noted: both partners purified.

T1 sequence (O60563 1-264): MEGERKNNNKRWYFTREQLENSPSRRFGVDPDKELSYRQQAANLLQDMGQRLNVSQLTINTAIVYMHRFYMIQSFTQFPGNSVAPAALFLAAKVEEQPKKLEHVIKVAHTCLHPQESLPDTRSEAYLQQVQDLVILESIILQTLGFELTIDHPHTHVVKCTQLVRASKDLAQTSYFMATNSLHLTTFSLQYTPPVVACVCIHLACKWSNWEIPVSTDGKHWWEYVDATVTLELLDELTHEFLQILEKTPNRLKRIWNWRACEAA

A word on the Kd: it is the equilibrium constant for the complex coming apart. As for HIV-1 TAR 18-44 WT, the equilibrium dissociation constant (Kd) turned out to be 0.2 nM in series [1], 19 nM in series [2] and 0.26 nM in series [3]. Moreover, the results for the binding signal (fold reduction in affinity vs WT AFF4) in series [4] and in series [5] were 2 and 3, respectively.

B1: AFF4 peptide 32-67 (peptide, UniProt Q9UHB7 32-67, looked up)
chain: Ac-SPLFAEPYKVTSKEDKLSSRIQSMLGNYDEMKDFIG-NH2
notes: human AFF4, residues 32-67; also called AFF4_(32-67); synthetic AFF4 peptide (32-67); source: synthetic peptide (University of Utah DNA/Peptide Facility)
As to B1, the binding result in series [6] was “binds”.

These data come from PMC5072841, “Insights into HIV-1 proviral transcription from integrative structure and dynamics of the Tat:AFF4:P-TEFb:TAR complex” (eLife, 2016).
